Experimental data: US20170158767A1 (published 2017)
Each block holds one binder with its values, some of them ahead of it.

Key:
[1] = target: T1, human PD-L1 expressed at the cell surface (human, UniProt Q9NZQ7 19-290); assay: flow cytometry on CHO cells transfected with human PD-L1 (FIG. 32A)
T1 construct: whole, on cells; also called cell surface PD-L1; full-length human PD-L1 on transfected CHO cells
Protocol: (§1) Chinese hamster ovary (CHO) cell lines that express recombinant human PD-L1 at the cell surface were developed and used to determine the specificity of PD-L1 human monoclonal antibodies by flow cytometry. CHO cells were transfected with expression plasmids containing full length cDNA encoding transmembrane forms of PD-L1. […] The cells were washed and binding was detected with a FITC-labeled anti-human IgG Ab. Flow cytometric analyses were performed using a FACScan flow cytometry (Becton Dickinson, San Jose, Calif.). The binding was compared to the parent CHO cell line. […] Binding was also tested using varying concentrations of an anti-PD-L1 antibody.

[2] = target: T1, human PD-L1 expressed at the cell …; assay: flow cytometry, serial dilutions on anti-CD3-activated human T cells
Protocol: Human or monkey T cells were activated by anti-CD3 antibody to induce PD-L1 expression prior to binding with a human anti-PD-L1 monoclonal antibody. […] An isotype control antibody was used as a negative control. The cells were washed and binding was detected with a FITC-labeled anti-human Ig-kappa light chain Ab. Flow cytometric analyses were performed using a FACScalibur flow cytometer (Becton Dickinson, San Jose, Calif.).

[3] = target: T1, human PD-L1 expressed at the cell …; assay: flow cytometry on CHO cells transfected with human PD-L1 (FIG. 32B)
Protocol: as §1

T1 sequence (Q9NZQ7 19-290): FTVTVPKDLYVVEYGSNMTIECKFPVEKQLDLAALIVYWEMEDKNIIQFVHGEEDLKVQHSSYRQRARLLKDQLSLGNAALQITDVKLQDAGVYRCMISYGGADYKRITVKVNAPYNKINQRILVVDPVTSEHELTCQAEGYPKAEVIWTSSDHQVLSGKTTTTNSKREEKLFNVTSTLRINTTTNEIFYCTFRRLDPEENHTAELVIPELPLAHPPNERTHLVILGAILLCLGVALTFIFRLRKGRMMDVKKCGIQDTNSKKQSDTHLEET

binding result [1]: binds
B1: 3G10 human monoclonal antibody (antibody, V domains shown)
VH: QVQLVQSGAEVKKPGASVKVSCKASGYTFTDYGFSWVRQAPGQGLEWMGWITAYNGNTNYAQKLQGRVTMTTDTSTSTVYMELRSLRSDDTAVYYCARDYFYGMDVWGQGTTVTVSS
VL: EIVLTQSPATLSLSPGERATLSCRASQSVSSYLVWYQQKPGQAPRLLIYDASNRATGIPARFSGSGSGTDFTLTISSLEPEDFAVYYCQQRSNWPRTFGQGTKVEIK
notes: Fully human IgG kappa from a KM mouse hybridoma; also called HuMAb 3G10

binding result [2]: binds
B2: 1B12 human monoclonal antibody (antibody, V domains shown)
VH: QVQLVQSGAEVKKPGSSVKVSCKTSGDTFSSYAISWVRQAPGQGLEWMGGIIPIFGRAHYAQKFQGRVTITADESTSTAYMELSSLRSEDTAVYFCARKFHFVSGSPFGMDVWGQGTTVTVSS
VL: not shown
notes: Fully human IgG kappa from a KM mouse hybridoma

binding result [3]: binds
B3: 10A5 human monoclonal antibody (antibody, V domains shown)
VH: QVQLVQSGAEVKKPGASVKVSCKASGYTFTSYDVHWVRQAPGQRLEWMGWLHADTGITKFSQKFQGRVTITRDTSASTAYMELSSLRSEDTAVYYCARERIQLWFDYWGQGTLVTVSS
VL: DIQMTQSPSSLSASVGDRVTITCRASQGISSWLAWYQQKPEKAPKSLIYAASSLQSGVPSRFSGSGSGTDFTLTISSLQPEDFATYYCQQYNSYPYTFGQGTKLEIK
notes: Fully human IgG kappa from a KM mouse hybridoma; also called HuMAb 10A5
